This assay deals with recombinant Hsp90α (human) (UniProt P07900).

B1: Tsc1-D-His6 (domain or fragment)
chain: DGCSDSMVGHNEEASGHNGETKTPRPSSARGSSGSRGGGGSSSSSSELSTPEKPPHQRAGPFSSRWETTMGEASASIPTTVGSLPSSKSFLGMKARELFRNKSESQCDEDGMTSSLSESLKTELGKDLGVEAKIPLNLDGPHPSPPTPDSVGQLHIMDYNETHHEHS
As to B1, the inhibition of Hsp90α ATPase activity in vitro (PiPer Phosphate Assay) by 100 nM Tsc1-D is 72%.
